Results on 1 protein are retold here after publication doi:10.1101/787119 (bioRxiv, 2019).

The series concerns the molecule itself. The experiment in a line: SEC-MALS. Background: Size exclusion chromatography separates by hydrodynamic size, large species first.

B1: Full-length human dehydrodolichyl diphosphate synthase (DHDDS) (enzyme, UniProt Q86SQ9 1-333, looked up)
chain: MSWIKEGELSLWERFCANIIKAGPMPKHIAFIMDGNRRYAKKCQVERQEGHSQGFNKLAETLRWCLNLGILEVTVYAFSIENFKRSKSEVDGLMDLARQKFSRLMEEKEKLQKHGVCIRVLGDLHLLPLDLQELIAQAVQATKNYNKCFLNVCFAYTSRHEISNAVREMAWGVEQGLLDPSDISESLLDKCLYTNRSPHPDILIRTSGEVRLSDFLLWQTSHSCLVFQPVLWPEYTFWNLFEAILQFQMNHSVLQKARDMYAEERKRQQLERDQATVTEQLLREGLQASGDAQLRRTRLHKLSARREERVQGFLQALELKRADWLARLGTASA
Usually stoichiometry N stands for the number of molecules, sites or subunits per partner or assembly. For the protein B1, the “stoichiometry N” value was 2.
